The test deals with T1, nSR100 (Mus musculus, UniProt Q8BKA3).
T1 construct: host or cells: mouse N2A cells
T1 sequence (Q8BKA3 1-608): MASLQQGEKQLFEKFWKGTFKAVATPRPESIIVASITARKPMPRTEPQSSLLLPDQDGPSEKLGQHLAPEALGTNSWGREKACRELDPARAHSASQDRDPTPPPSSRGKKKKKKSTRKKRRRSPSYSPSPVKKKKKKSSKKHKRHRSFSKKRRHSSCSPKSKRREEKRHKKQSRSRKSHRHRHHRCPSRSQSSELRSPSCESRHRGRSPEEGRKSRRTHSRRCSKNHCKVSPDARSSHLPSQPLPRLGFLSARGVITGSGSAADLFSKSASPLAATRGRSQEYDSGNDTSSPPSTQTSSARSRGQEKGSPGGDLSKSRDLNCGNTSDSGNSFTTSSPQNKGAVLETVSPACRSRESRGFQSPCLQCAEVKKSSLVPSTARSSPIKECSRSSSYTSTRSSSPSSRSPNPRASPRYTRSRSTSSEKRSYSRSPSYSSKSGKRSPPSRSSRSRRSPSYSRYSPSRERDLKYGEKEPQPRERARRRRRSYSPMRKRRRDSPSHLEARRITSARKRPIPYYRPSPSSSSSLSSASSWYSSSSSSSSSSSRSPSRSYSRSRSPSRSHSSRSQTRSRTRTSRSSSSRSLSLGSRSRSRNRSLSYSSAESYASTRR
Briefly: AP-MS nSR100 interaction partners from mouse N2A cells (Table 5). It counts as binding. The note with it: for AvgP (average of the SAINT scores) / MaxP (maximal SAINT score): bait Srrm4; for FoldChange between the prey Avg spectra of the bait and control purifications: bait Srrm4, 0.1 added to prevent division by 0; for AvgSpec (average number of spectra per replicate): bait Srrm4, 2 replicates; for Spectra (number of spectra for the prey in the purification of the bait): AP-MS; for SpecSum: bait Srrm4, sum of spectra over 2 replicates.

[1] abbreviates: bait Srrm4, biological replicate 1 (first number of the cell).
[2] abbreviates: bait Srrm4, biological replicate 2 (second number of the cell).

Excerpt: By applying affinity purification coupled to mass-spectrometry (AP-MS), several interaction nSR100 partner proteins were detected that provide insight into mechanisms of post-translational regulation of nSR100 levels.

B1: Grpel1 (protein, UniProt Q99LP6 28-217, looked up)
GrpE protein homolog 1, …: CTATKQKNNGQNLDEDLGHCEPKTDPPSADKTLLEEKAKLEEQLRETMEKYKRALADTENLRQRSQKLVEEAKLYGIQGFCKDLLEVADILEKATQSVPKEEISNNNPHLKSLYEGLVMTEVQIQKVFTKHGLLRLDPIGAKFDPYEHEALFHTPVEGKEPGTVALVSKVGYKLHGRTLRPALVGVVKDA
Consider B1, for which the “AvgP (average of the SAINT scores)” value worked out at 0.97; the “MaxP (maximal SAINT score)” value stood at 0.98; the “FoldChange between the prey Avg spectra of the bait and control purifications” value (from here on “FoldChange between the prey Avg spectra”) was 3.3; the “AvgSpec (average number of spectra per replicate)” value is given as 16.5. This molecule yielded a SpecSum of 33. For the same molecule, the “Spectra (number of spectra for the prey in the purification of the bait)” value under setting [1] amounted to 16. The “Spectra (number of spectra for the prey in the purification of the bait)” value under setting [2] stood at 17.

B2: Fam76b (protein, UniProt Q80XP8 2-339, looked up)
Protein FAM76B: AASALYACTKCTQRYPFEELSQGQQLCKECRIAHPIVKCTYCRSEFQQESKTNTICKKCAQNVKQFGTPKPCQYCNIIAAFIGTKCQRCTNSEKKYGAPQTCEQCKQQCAFDRKEEGRRKVDGKLLCWLCTLSYKRVLQKTKEQRKSLGSSHSNSSSSSLTEKDQHHSKHHHHHHHHHHRHSSGHHKVSSLSPEQEQGLWKQSHKSSAAIQNETPKKKPKLESKPSNGDSSSINQSADSGGTDNFVLISQLKEEVMSLKRLLQQRDQTILEKDKKLTELKADFQYQESNLRTKMNSMEKAHKETVEQLQAKNRELLKQVAALSKGKKFDKSGSVLTSP
Consider B2, for which the “AvgP (average of the SAINT scores)” value stood at 0.98; the “MaxP (maximal SAINT score)” value was 1; the “FoldChange between the prey Avg spectra” value is 35; the “AvgSpec (average number of spectra per replicate)” value is reported as 3.5. Further, the SpecSum stood at 7. The “Spectra (number of spectra for the prey in the purification of the bait)” value under setting [1] stood at 2. Further, the “Spectra (number of spectra for the prey in the purification of the bait)” value under setting [2] amounted to 5.

B3: Sfswap (protein, UniProt Q3USH5 1-945, looked up)
Splicing factor, suppressor …: MYGAGGGRAKPERKGGVKEEAGPGGTGTGGNRVELLVFGYACKLFRDDERALAQEQGQHLIPWMGDPKILIDRYDGRGHLHDLSAYDAEYATWNRDYQLSEEEARVEALCDEERYLALHTDLLEEEARQEEEYKRLSEALAEDGNYSAVGFTYGSDYYDPSEPTEEEEPSKQREKNEAENLEENEEPFIAPLGLSVPSDVELPPTAKMHAIIERTANFVCKQGAQFEIMLKAKQARNSQFDFLRFDHYLNPYYKFIQKAMKEGRYTVLAESKNEEKKKSGPTSDNEEEDDEEDGSYLHPSLFASKKSSRLEELMKPLKVVDPDHPLAALVRKAQADSSAPAPPTADGTPAQPSQVEYTADSTVAAMYYSYYMLPDGTYCLAPPPPGIDVATYYSTLPAGVTVSSSPGVTTTVPPPPGTTPPPPPTTAEPSSGVTSTTTTTSALAPVAIIPPPPDIQPVIDKLAEYVARNGLKFETSVRAKNDQRFEFLQPWHQYNAYYEFKKQFFLQKEGGGSTQAASTAEEAPTETAVEESGEAGEDGAPEGMAETGGRGSGKKEAGSSKSTVDGKLVKASFAPISFAIKAKENDLLPLEKNRVKLDDDSEEDEESRECQESTSSVANPSPAAAPPSVAVEEKKPQLTQEELEAKQAKQKLEDRLAAAAREKLAQASKESKEKQLQAERKRKAALFLQTLKNPLPEAEVGKLEESTFGVEDTGVMPCPLLVGGRTLPILEGKPPERPSNRCRDPPREEEREKKKKKHKKRSRTRSRSPKYHSSSKPRSRSHSKAKHSLPSAYRTVRRSRSRSRSPRRRAHSPERRREERSVPTAYRMSGSPGVSRKRTRSRSPHEKKKKRRSRSRTKAKARSQSTSPSKQAAQRPSAHSAHSASISPVESRGSSQERSRGVSQEKDGQISSAIVSSVQSKITQDLMAKVRAMLAASKNLQTSAS
B3: the “AvgP (average of the SAINT scores)” value is reported as 0.97; the “MaxP (maximal SAINT score)” value is recorded as 0.99; the “FoldChange between the prey Avg spectra” value stood at 25; the “AvgSpec (average number of spectra per replicate)” value stood at 2.5. The SpecSum worked out at 5. In addition, the “Spectra (number of spectra for the prey in the purification of the bait)” value under setting [1] was found to be 2. Besides, the “Spectra (number of spectra for the prey in the purification of the bait)” value under setting [2] turned out to be 3.

B4: Rab5c (protein, UniProt P35278 1-216, looked up)
Ras-related protein Rab-5C: MAGRGGAARPNGPAAGNKICQFKLVLLGESAVGKSSLVLRFVKGQFHEYQESTIGAAFLTQTVCLDDTTVKFEIWDTAGQERYHSLAPMYYRGAQAAIVVYDITNTDTFARAKNWVKELQRQASPNIVIALAGNKADLASKRAVEFQEAQAYADDNSLLFMETSAKTAMNVNEIFMAIAKKLPKNEPQNAAGAPGRTRGVDLQESNPASRSQCCSN
On to B4, for which the “AvgP (average of the SAINT scores)” value stood at 0.97; the “MaxP (maximal SAINT score)” value turned out to be 0.99; the “FoldChange between the prey Avg spectra” value worked out at 25; the “AvgSpec (average number of spectra per replicate)” value came to 2.5. Further, the SpecSum worked out at 5. Besides, under setting [1], the “Spectra (number of spectra for the prey in the purification of the bait)” value is 3. For the same molecule, the “Spectra (number of spectra for the prey in the purification of the bait)” value under setting [2] is on record as 2.

B5: Wdr11 (protein, UniProt Q8K1X1 1-1223, looked up)
WD repeat-containing protein …: MLPYTVNFKVSARTLTGALNAHNKAAVDWGWQGLIAYGCHSLVVVIDSNTAQTLQVLEKHKADIVKVRWARENYHHNIGSPYCLRLASADVTGKIIVWDVAAGVAQCEIQEHVKPIQDVQWLWNQDASRDLLLAIHPPNYIVLWNADTGTKLWKKSYADNILSFSFDPFDPSHLTLLTSEGIVFISDFSPSKPPSGPGKKVYISSPHSSPAHNKLAAATGAKKALNKVKILITQEKPSADFVALNDCLQLAYLPSKRNHMLLLYPREILILDLEVNQTVGVIAIERTGVPFLQVIPCSQRDGLFCLHENGCITLRVRRSYNSICTTSNDEPDLDPVQELTYDLRSQCDAIRVTKTVRPFSMVCCPVNENAAALIVSDGRVMIWELKSAVCSRNARNSSGVSPLYSPVSFCGIPGGVLQNKLPDLSLDNMIGQSAIAGEEHPKGSILQEVHLKFLLTGLLSGLPSPQFAIRMCPPLTTKNIKTYQPLLAVGTSNGSVLVYHLTSGLLHKELSVHSCEVKGIEWTSLTSFLSFAASTPNNMGLVRNELQLVDLPTGRSTAFRGDRGNDESPIEMIKVSHLKQYLAVVFKDKPLELWDIRTCTLLREMSKSFPAITALEWSPSHNLKSLRKKQLATREAMARQTVVSDAELGAVESSVISLLQEAESKAELSQNISAREHFVFTDNDGQVYHLTVEGNSVKDSARIPPDGSMGSITCIAWKGDTLVLGDMDGNLNFWDLKARVSRGIPTHRSWVRKIRFAPGKGNQKLIAMYNDGAEVWDTKEVQMVSSLRSGRNVTFRILDVDWCTSDKVILASDDGCIRVLEMSMKSTCFRMDEQELVEPVWCPYLLVPRAALALKAFLLHQPWNGRYSLDISHIDYPENEEIKTLLQEQLHALSNDIKKLLLDPDFSLLQRCLLVSRLYGDESELHFWTVAAHYLHSLSQAKSGDTVVTKEGAPKDRLSNPLDICYDVLCENTYFQKFQLERVNLQEVKRSTYDHTRKCTDQLLLLGQTDRAVQLLLETSADNQHYYCDSLKACLVTTVTSSGPSQSTIKLVATNMIANGKLAEGVQLLCLIDKAADACRYLQTYGEWNRAAWLAKVRLNSEECADVLKRWVDHLCSPQVNQKSKALLVLLSLGCFVSVAETLHSMRYFDRAALFVEACLKYGAFEVSEDTEKLIAAIYADYARSLKSLGFRQGAVRFASKAGAAGRDLLNELGSTKEELTES
Take B5: the “AvgP (average of the SAINT scores)” value worked out at 0.97; the “MaxP (maximal SAINT score)” value is 1; the “FoldChange between the prey Avg spectra” value stood at 30; the “AvgSpec (average number of spectra per replicate)” value is reported as 3. The molecule also had a SpecSum of 6. In addition, under setting [1], the “Spectra (number of spectra for the prey in the purification of the bait)” value is 2. Besides, the “Spectra (number of spectra for the prey in the purification of the bait)” value under setting [2] was determined as 4.

For the origin of these results see patent US10772928B2, “Modulation and detection of a neuronal alternative splicing regulatory network for treatment and diagnosis of neurological disorders” (The Governing Council of the University of Toronto, priority 2014, dated 2020).
